The text below walks through data of US20250163129A1 (IMMUNOS THERAPEUTICS, published 2025).

The target of this assay is T1, HLA-B57(A46E/V97R).β2m IgG4 Fc fusion protein dimer associated with β2m (human; homo sapiens).
T1 construct: also called iosH2; losH2
Briefly: ELISA, biotinylated LILRB2 on streptavidin plate. From the text:
The inventors went on to dissect the immunological properties most relevant to tumor immunity associated with HLA-B57^{(A46E/V97R)} formats, all lacking association with a peptide epitope associated with the peptide-binding groove of the HLA class I domain of the fusion protein. The affinity of interaction of LILRB2 with wildtype HLA-B57 fusion protein (dimers) lacking β2m, HLA-B57^{(A46E/V97R)} fusion protein (dimers) lacking β2m, and HLA-B57^{(A46E/V97R)} fusion protein dimers still bound to β2m was measured using the enzyme-linked immunosorbent assay (ELISA) method. Flat bottom Pierce™ Streptavidin coated high binding capacity 96 well plates (Pierce #15500) were coated with 50 μl of c-terminally biotinylated antigen molecules (LILRB2, BPS Bioscience #100335) immobilized at a final concentration of 5 μg/ml in PBS buffer. PBS and IgG isotype were used as negative controls. A serial dilution of HLA-B57, or HLA-B57^{(A46E/V97R)} lacking β2m, and HLA-B57^{(A46E/V97R)}.β2m (eight concentration points: 10, 2.5, 1, 0.25, 0.1, 0.025, 0.01, 0.0025 μg/ml) was applied (50 μl) in duplicates. An APC conjugated goat anti-human IgG antibody (Jackson Immuno Research #109-135-098) with 1:100 dilution in TBS (50 μl) was used for detection. Finally, 50 μl TBS in each well was added and a fluorescence scan was performed with APC excitation and emission wavelengths of 650 nm & 660 nm, respectively. […]
Background: An ELISA detects its analyte on a solid surface through an enzyme-linked reagent.

B1: LILRB2, c-terminally biotinylated (BPS Bioscience #100335) (receptor, UniProt Q8N423 22-458, looked up)
chain: QTGTIPKPTLWAEPDSVITQGSPVTLSCQGSLEAQEYRLYREKKSASWITRIRPELVKNGQFHIPSITWEHTGRYGCQYYSRARWSELSDPLVLVMTGAYPKPTLSAQPSPVVTSGGRVTLQCESQVAFGGFILCKEGEDEHPQCLNSQPHARGSSRAIFSVGPVSPNRRWSHRCYGYDLNSPYVWSSPSDLLELLVPGVSKKPSLSVQPGPVMAPGESLTLQCVSDVGYDRFVLYKEGERDLRQLPGRQPQAGLSQANFTLGPVSRSYGGQYRCYGAHNLSSECSAPSDPLDILITGQIRGTPFISVQPGPTVASGENVTLLCQSWRQFHTFLLTKAGAADAPLRLRSIHEYPKYQAEFPMSPVTSAHAGTYRCYGSLNSDPYLLSHPSEPLELVVSGPSMGSSPPPTGPISTPGPEDQPLTPTGSDPQSGLGRHL
modifications: C-terminal biotin
notes: Bought reagent immobilised on streptavidin plates
In the case of B1, the binding result is “binds”.
